The text below walks through data of PMC12375108, “A repurposed AMP binding domain reveals mitochondrial protein AMPylation as a regulator of cellular metabolism” (Nature Communications, 2025).

Data set [1] concerns the target T1, AMPylated GlnA (glutamine synthetase), recombinant (E. coli, UniProt P0A9C5 1-469, AMPylated tyrosine at 398 (Tyr398-AMP)).
T1 construct: glutamine synthetase GlnA, cloned in ppSumo; Species is stated for GlnA in general (E. coli), not for the ppSumo construct; also called GlnA-AMP; copies: 12
T1 sequence: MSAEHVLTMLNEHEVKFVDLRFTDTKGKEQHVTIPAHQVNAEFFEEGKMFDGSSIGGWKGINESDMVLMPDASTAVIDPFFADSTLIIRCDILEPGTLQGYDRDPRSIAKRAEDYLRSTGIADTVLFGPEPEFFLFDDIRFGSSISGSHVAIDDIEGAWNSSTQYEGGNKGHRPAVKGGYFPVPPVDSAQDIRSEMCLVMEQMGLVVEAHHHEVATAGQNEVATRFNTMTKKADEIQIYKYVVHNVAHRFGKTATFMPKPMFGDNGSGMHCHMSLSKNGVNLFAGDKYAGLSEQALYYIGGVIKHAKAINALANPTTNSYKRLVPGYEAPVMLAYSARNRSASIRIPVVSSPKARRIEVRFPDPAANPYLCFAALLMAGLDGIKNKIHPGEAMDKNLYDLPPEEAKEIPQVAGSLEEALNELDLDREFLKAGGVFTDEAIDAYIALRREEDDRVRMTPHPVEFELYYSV
The data set can be described thus: far-Western, overlay or dot blot; dot blot: 400 ng to 25 ng of AMPylated or non-AMPylated protein spotted on nitrocellulose, probed with GST or GST-hinT at 0.125 μg/mL in TBST for 1 h, detected with α-GST. The settings on record: both partners purified.

The target in data set [2] is T2, AMPylated sucA (UniProt P0AFG3 1-933, multiple AMPylation sites, residues not given).
T2 construct: sucA, model AMPylated substrate of E. coli SelO; also called sucA-AMP; SucA-AMP; source: E. coli BL21, co-expressed with SelO V242A (pETDuet), purified (Ni-NTA)
T2 sequence (looked up): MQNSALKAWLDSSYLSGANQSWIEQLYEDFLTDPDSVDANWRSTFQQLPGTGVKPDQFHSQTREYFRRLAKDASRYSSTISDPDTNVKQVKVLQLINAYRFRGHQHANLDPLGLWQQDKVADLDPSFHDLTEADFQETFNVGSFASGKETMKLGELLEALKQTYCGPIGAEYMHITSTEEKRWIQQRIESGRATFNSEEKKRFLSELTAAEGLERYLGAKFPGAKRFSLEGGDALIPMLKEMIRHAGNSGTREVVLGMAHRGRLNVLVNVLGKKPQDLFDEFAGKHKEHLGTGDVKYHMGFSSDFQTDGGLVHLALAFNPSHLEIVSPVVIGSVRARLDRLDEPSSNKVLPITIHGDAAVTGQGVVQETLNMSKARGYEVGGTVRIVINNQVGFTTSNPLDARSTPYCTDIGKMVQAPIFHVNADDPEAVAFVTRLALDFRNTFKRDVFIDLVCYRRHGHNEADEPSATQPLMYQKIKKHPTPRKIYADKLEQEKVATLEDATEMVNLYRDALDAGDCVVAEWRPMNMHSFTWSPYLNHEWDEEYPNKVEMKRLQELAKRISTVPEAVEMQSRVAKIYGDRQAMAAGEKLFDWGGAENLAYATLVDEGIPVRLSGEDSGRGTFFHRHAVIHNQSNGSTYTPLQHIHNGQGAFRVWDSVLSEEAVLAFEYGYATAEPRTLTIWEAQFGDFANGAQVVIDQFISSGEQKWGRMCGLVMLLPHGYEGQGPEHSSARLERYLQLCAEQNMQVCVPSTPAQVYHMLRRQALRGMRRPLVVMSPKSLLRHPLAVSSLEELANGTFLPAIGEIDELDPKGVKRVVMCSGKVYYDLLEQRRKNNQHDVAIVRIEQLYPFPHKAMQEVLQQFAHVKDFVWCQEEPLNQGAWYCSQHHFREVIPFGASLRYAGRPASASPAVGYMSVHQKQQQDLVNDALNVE
The data set can be described thus: BLI; GST-hinT (90 nM) immobilised on anti-GST biosensors; sucA-AMP 500 to 7.81 nM, unmodified sucA at 500 nM; 10 mM Tris pH 8, 150 mM NaCl, 0.1% Triton X-100; KD from steady-state responses, one site. The conditions noted are these: both partners purified.

Data set [3] deals with the molecule itself. The data set can be described thus: cryo-EM structure; GlnA (4.68 mg/ml) mixed with hinT (3.29 mg/ml), 1:3 molar ratio of monomers; 10 mM Tris pH 8, 150 mM NaCl, 2 mM DTT.

B1: GST-tagged E. coli hinT H101N E96S (enzyme, UniProt P0ACE7 1-119, looked up)
chain: MAEETIFSKIIRREIPSDIVYQDDLVTAFRDISPQAPTHILIIPNILIPTVNDVSAEHEQALGRMITVAAKIAEQEGIAEDGYRLIMNTNRHGGQSVYHINMHLLGGRPLGPMLAHKGL
notes: E. coli hinT in pGEX-rTEV, E96S made by site directed mutagenesis on the H101N form; also called GST-Ec hinT^(HN, E96S); GST-Ec hinT^E96S; not shown: GST, N-terminal, kept
Consider B1, for which the binding result in data set [1] is “binds”. In addition, in data set [2], binding was put at a Kd of 21 nM.

B2: E. coli hinT H101N (untagged) (enzyme, UniProt P0ACE7 1-119, looked up)
chain: MAEETIFSKIIRREIPSDIVYQDDLVTAFRDISPQAPTHILIIPNILIPTVNDVSAEHEQALGRMITVAAKIAEQEGIAEDGYRLIMNTNRHGGQEVYHINMHLLGGRPLGPMLAHKGL
notes: open reading frame cloned into pProEx; ATG replaces the endogenous TTG start codon; also called hinT^HN; source: E. coli BL21, purified (Ni-NTA, TEV cleavage, Superdex 75)
With B2, the “stoichiometry N” value in data set [3] is 2.

As usually defined, the Kd is the constant that tells how readily two partners part at equilibrium. Usually stoichiometry N stands for the number of molecules, sites or subunits per partner or assembly.
